Reference: the DeepSol protein solubility set

test: soluble on expression in E. coli; label from the status in PepcDB or PDB records

Sequence | soluble on expression in E. coli
AIAAQDENKEQPKKDWKTIISPQYWKNSVSLLFTDAEQGNFVLPSLQSVSFSKASETIGKQVKESAKELGALFSAEECPSQQGSKEAPWEVLTAREKPFAKEIEERILKITSDCYRSRKEREEIFLSLSSLKDSHFRWSNNSSEKMKQAMAALEKDPILPDLRAGLVPKRMSEENFWRQYFYLVEKVKKSVVTNSQFGLFDEWESWSDTTSHPTLEHSQENSDLDNEVDQVLNDVLE | soluble
MRLTSKGRYAVTAMLDVALNSEAGPVPLADISERQGISLSYLEQLFSRLRKNGLVSSVRGPGGGYLLGKDASSIAVGEVISAVDESVDATRCQGKGGCQGGDKCLTHALWRDLSDRLTGFLNNLEHHHHHH | not soluble
GPGSGSDERVVALKDITLAESKHSNAATTKQGASTTNCLQRSNLPPPFAPVRRGEFVMIRGPSGGGKTTLLNIIGSIDSCTEGNIELNGRIIDKDTKESVLADIRLKNIGFVFQTFNLIATMTAAENVELPMTLLGTMSTKAMRLRSRQLLTLVGLRNRINHLPSELSGGEQQRVTIARSLANNPSILLLDEPTGDLDTANTIEVMDLLMRINRRTKTTCIMVTHNPDIECYADRILYVSDGRFAKEVFNALPMCLDLENYTEYLAAKERAITGFAGVGDVEDDSEPRATAAMAECIG | not soluble
SLENVLASHSKMQGALEKVQIELGRRDSEIAGLKKERDLNQQRVQKLEAEVDQWQARMLVMEDQHNSEIESLQKALGVAREDNRKLAMSLEQALQTNNHLQTKLDHIQEQLESKELERQNLETFKDRMTEESKVEAELHAERIEALRKQFQTERETTKKVAQREVAELKKALDEANFRSVEVSRTNRELRQKLAELEKILESNKEKIKNQKTQIKLHLSAKANNAQNIERMKVVWETSSHFLDTL | soluble
MGSDKIHHHHHHMKGQSKKALTKKRIEEAALSLFREQGYDSTTVQEITAKAQVAKGTFFNYFPTKESIMRSLAEDRLHSVSVYMEQRHIQSLPILKKIRTYLSYLLEEYDSHPKLTVQIWRHVVEFEEMILSHWVVLLEEAKERGELSEDFPIHVWSHIIHSHVCYGLQMSHLAPTKAQLLAKVMPLLEESLSAIIQKRGNSAMKKLVVLGGGYGGMRILQRLLPNDLPSDWEITLVDRLPYHCLKTEYYALAAGTASDHHLRVSFPEDPRLSTRYGSVSSIDLASKTVLFEEGEPLTYDTLIIGLGCEDKYHGVPGAKEHTYSIQSMEATRRTYEALNNVRPEGVVTIVGAGLSGVELASELRESRPDLTIKLLDRGDIILSMFPRRLSNYVQNWFIDHGVDIINKSNVTKVEEGAVYNHDERIESDAIIWTAGIQPNVVVRNLDVEKDQQGRVVLTPHHHLPTDEDVFVVGDCASLPHAPSAQLAEGQAEQIVTVLKKRWNNESLPDEFPRIKLKGVLGSLGKKHGFGLMGERTLIGRVPRVLKSGVLWMYKYHSG | not soluble
MPAHSLSLYQYYRPPLDWQAQLAFYRLRAVAGMEWFSNTDNDCLEKIAQDKQALEYGRTLQIDDIRAVVHIIHEAHLHRFKLTLTFTPDSPIAGLQKLITQVRRILDLDADMQQIEHNLQRLTDLKLIPKSGLRIPGAGSLEHHHHHH | not soluble
MGSDKIHHHHHHMMSRPIILGIVGDSAAGKTTLTRGIAQVLGPENVTLICTDDYHRYDRQQRAEIGITALHPDCNHLDIMQQHLSLLRTGQPILKPVYSHKTGSFEPPQYIKPNKFVIIEGLLGYSTRAARDCYDVKVYLAPPENLRAKWKVKRDTQKRGYTPEQVLAELEKREPDSEQFIRPQRQWSDIVVSFYPPHEDGDETNGHLNVRLVLRPTIPHPDFTSIINLTNGSSVSAIRLGLDRDMSKPVDVLEVDGHATLEQVNKLEHILCSDMPYLSSVCDRESNPELGKIAGTTGETLQSYPLALTQLIITYHMLKATQIYQ | not soluble
MMKNMARKNQKAPWEEEEEIIWVSRTELKNDMLALQKLGEELVELKPSALAKFPLPEDLAEAIKDAQRFKNEARRRQLQYIGKLMRHIDPEPLQAALDKLRNKHSQTTALLHKLEQLRDRIVAEGDSAIEVAMEQYPEADRQRLRLLARQASKEKAGNKPPKSSREIFQLLKEAMLAKQEIEEESEDDLDSAE | not soluble
MGSDKIHHHHHHMNDFTTEILKTLANKGDLNELFRVHLEKAVNTLLKTELTAFLDYEKYDRIGFNTGNSRNGSYDRTVKTEYGELHLQIPRDRNGEFKQQTVPAYRRTNDTLEETVIHLFRKGITMSEIADLIEKMYGHHYTPQTMSNITKSFTEEVTAFKGRELHDRYAAIYMDATYIPLKRKTVAKEAIHIAVGIRPDGSKEVLSYAIAPTESITIWEEILLDLQERGLKNVLLFITDGLKGMVGAISRFYPKARFQHCCVHVSRNISHKVRVDDRKEVCDDFKMVYQTSSKKVALEARGAFAEKWKTSYPKVVESILSNDHLLTFYDFPLAIRKSIYSTNLIESFNKQIKKYSHRKEQFQNEESMERFLVSSFDTYNQKFLGRSHKGFQQAEGELEQMLSQLIEN | not soluble
MNSPDIALIKTYLLTLQDNICAALAQADGHAEFTEECWVREEGGGGRSRVLVNGAVFEQAGVNFSHVSGAMLPASATAHRPELAGRSFQALGVSLVIHPLNPYLPTSHANVRFFIAEKPGEDAVWWFGGGFDLTPYYGFEEDAIHWHQVAHSLCQPFGEQIYPRYKKWCDDYFYIKHRQEARGIGGLFFDDLNSPDFMTCFNFTQAVGDGFLAAYMPIVARRKALGWGDRERQFQLYRRGRYVEFNLVWDRGTLFGLQTGGRTESILMSLPPLVRWEYNYQPEADSAEAALYRDFLPVKDWLAIKGETH | not soluble
MGSDKIHHHHHHMAKKHEPFVIGDVSVAAGTQQSVKLPAAKLYNDTPMDLHVEVFHGTKAGPVLLVCAAIHGDELNGIEICRRLLGRVNAKTLTGTLLIVPIVNVFGFIQQSRYLPDRRDLNRCFPGSAKGALASRLAHLFSSILVKRATHIVDLHTGAIHRDNLPQIRCDTDDEVMLDMANAFGAPVIMSSKAREGSMRGYANSLNIPCILYEAGEALRFSDMSIKSGVNGVINVMRCLSMTKGKIKTKSTSVNASRSYWVRSESDGLVNIKLKLGERVSKGQVLANIVNPLGGEPSPLLAPTDGIIIGNSNIPVTNEGEALFHIAQFSGDEIEIINDNLDDFMQEYA | not soluble
MGSDKIHHHHHHMSSEQIIASLKELVATPENPGKVLTDPADLDNYGKDWTKIYPPKPLAIVLPKTTEQVQALVKFANENQVALVPSGGRTGLSAGAVAANGEVVVAFDNMNQILDFNASDRTVRCQAGVVTEQLQTFAEENGLYYPVDFASAGSSQLGGNLSTNAGGIKVIRWGMSRDWVAGLKVVTGKGDVLDLNKDLAKNNTGYDLRHLFIGAEGTLGFITEATMKLTRKPDDLTVLVLGLNDLTNTMDVLQAFQKKLDLTAYEFFSHQAMGHVLAHGQVQAPFETEAPYYALLEFEAVSDQVMDDAMALFEQCVEEGWVLDGVISQSETQAQNLWQLRERISESIAPRIPYKNDISVVVSKVPGFLQEIDNVVTEHYPDFEIIWFGHIGDGNLHLNILKPEDMAKEDFFEKCQQVNKWVFEIVERYQGSVSAEHGVGMTKKPYLQYTRSEAEIAYLRGIKQVFDPNNIMNPGKIFD | not soluble
EDSKALDEVVVVAFGTQKKESMISSIETIKPAELKVPSSNLTTALAGRMSGVIAYQRSGEPGKDNADFFIRGVTTFGYKKDPLILIDGIETTTTELARLQPDDIAAFSILKDATATALYGARGANGVIQVATKEGKEGA | not soluble
MGSDKIHHHHHHMKKLVVRADDIGYSEGVTLGIISSYKNGIVTSAGIMVNMPFSRQAIEMVKNDDVCFGLHVNLVIGEPCCKEHIKIKNLLDEGGKFVSSKIRRTQLLTGKEVFNYEEVYEEVCAQIETYKLYMSKLPEYIDIHGIEEDVSISAMCDAAKEYGIPSCPYYLDSCISMPSKYPQNDFYKLNKSFVKLFEEKYINLDKDITLMVTHPGFIDYSLIKSSSLIQERVYEHAMLCDKEVKMWLKRNNIELVDFKDIFKSNNYI | not soluble
MNLYRLLKQREADQKPLRVALIGAGKFGSMFLSQVQRTPGMRLVAVADLAPDRARAALTRVGWPAAALNADTIHHAVKTGKVYFSDDVRSVSVDPEVEIVIDATGQAAAGIEHVLTCCEYGKHII | not soluble
GIQPVISAQEQETQIVLYGKLVEARQKHANKMDVPPAILATNKILVDMAKMRPTTVENVKRIDGVSEGKAAMLAPLLEVIKHFCQTNSVQTDLFSSTKPQEEQ | soluble
MSSKWITSLFKSVVLTAALVTPFAASAFTEGTDYMVLEKPIPNADKTLIKVFSYACPFCYKYDKAVTGPVSDKVADLVTFTPFHLETKGEYGKQASEVFAVLIAKDKAAGISLFDAKSQFKKAKFAWYAAYHDKKERWSDGKDPAAFIKTGLDAAGMSQADFEAALKDPAVQETLEKWKAAYDVAKIQGVPAYVVNGKYLIYTKNIKSIDSMAELVRELATKK | not soluble
MKYPPSLVSLIRELSRLPGIGPKSAQRLAFHLFEQPREDIERLASALLEAKRDLHVCPICFNITDAEKCDVCADPSRDQRTICVVEEPGDVIALERSGEYRGLYHVLHGVLSPMNGVGPDKLHIKPLLPRVGQGMEVILATGTTVEGDATALYLQRLLEPLGAAISRIAYGVPVGGSLEYTDEVTLGRALTGRQTVSKPQPPQRPGDEDGADGAAVPASRLEHHHHHH | soluble
MSMPYDNEAKIKQAVILLQKIVNDTSVPRNIRRAATDAIRNLQDLGLSPAVRAANAIGILEDISQDPNMPTHARISIWNVVSILETVKD | not soluble
MNNYLRKLVEGQHLTEEEMYKAGLLLLNENILESEIAAFLVLLKAKGETAEEIYGLVRALREKALPFSNHIQGAMDNCGTGGDGAQTFNISTTSAFVLAGAGVKVAKHGNRAVSSKTGSADLLEELGVNISSTPNEIDYLLEHVGIAFLFAPAMHPALKRIMKIRKELNVPTIFNLIGPLTNPVNLETQFVGIYKRDMLLPVAQVLQKLGRKQALVVNGSGFLDEASLQGENHVVILKDNEIVETSIEPEKYGFSIVKNEEIRGGNSKENAKITLGVLSGEKSVYRDTVLFNAGLALFANGKAKTIEEGITLAAHSIDSGKALAKLNLLIAASNEELERVN | not soluble
MGSDKIHHHHHHMKNFIRKLIRALTAIRLETDRYKHSTLRIIINWLTAFLKDLFSAQEIRLYGLADPEDGANRIRQYVSKEMADRFYRKYNPGAAVPNIEDKFIFTTLCLQHHLPIPATYGIFKQGIVKTFDERIFQESSRFRDFIRELEPGEYLLKPNNGMLGLGLSILEIDDQGSLKFQGKSITADDLYRELCSIEVTLPASSKGDSVDMDFEGLLFQQRIANHPEITKLTGFKMLQTIRICTHVTDNNQVEILFAFMKLAGQEGLADAFNLGKTGNMLAKIDPATGKFCNVYAMDQQQGYLVETTHHAVTQANLLNFTVPHWQACLTLAMKLSTTFLPLRAVGWDIAITDNRPVVLEGNDNWVPVVPFDINIDKLKQYKLKS | not soluble
MAVKEATSETKKRSGYEIITLTSWLLQQEQKGIIDAELTIVLSSISMACKQIASLVQRANISNLTGTQGAVNIQGEDQKKLDVISNEVFSNCLRSSGRTGIIASEEEDVPVAVEESYSGNYIVVFDPLDGSSNLDAAVSTGSIFGIYSPNDECLPDFGDDSDDNTLGTEEQRCIVNVCQPGSNLLAAGYCMYSSSVIFVLTIGKGVFVFTLDPLYGEFVLTQENLQIPKSGKIYSFNEGNYKLWDENLKKYIDDLKEPGPSGKPYSARYIGSLVGDFHRTLLYGGIYGYPRDKKSKNGKLRLLYECAPMSFIVEQAGGKGSDGHQRVLDIQPTEIHQRVPLYIGSTEEVEKVEKYLA | soluble
